How the values were obtained:
[1] = biological target: OdhI (Oxoglutarate dehydrogenase Inhibitor), FHA substrate of PknG (Corynebacterium glutamicum) (UniProt Q8NQJ3)
[2] = biological target: OdhI (Oxoglutarate dehydrogenase Inhibitor), FHA substrate of PknG (Corynebacterium glutamicum) (UniProt Q8NQJ3); remark: listed apart in the source

Sequence of UniProt Q8NQJ3 (Q8NQJ3 whole entry): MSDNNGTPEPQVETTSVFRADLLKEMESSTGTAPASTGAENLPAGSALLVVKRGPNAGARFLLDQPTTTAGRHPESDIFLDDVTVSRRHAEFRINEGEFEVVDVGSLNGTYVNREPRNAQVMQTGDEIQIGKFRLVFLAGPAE

Row | kinase activity ([γ-32P]ATP) against OdhI compared to the full-length enzyme (phosphorylation of the 17-mer peptide unaffected) [1] | kinase activity ([γ-32P]ATP) of CgPknG toward OdhI (25 μM) compared with the 17-mer peptide substrate lacking an FHA domain (330 μM) [2] | Substance
1 | 7 fold lower |  | CgPknG deletion mutant lacking residues 1 to 129 and 434 to 822 (domain or fragment)
2 |  | 45 fold | Ser/Thr protein kinase PknG from Corynebacterium glutamicum, full length (enzyme)

— article PMC8546545
